From patent US20030229005A1 (BIOZYME, published 2003)
Primed or numbered codes have the meaning given here. The star is where a group is joined. Dabcyl′ = CN(C)c1ccc(/N=N/c2ccc(C(=O)*)cc2)cc1; Dnp = O=[N+]([O-])c1ccc(*)c([N+](=O)[O-])c1; fluorescein = fluorescein label

Columns and labels:
Experiment in all cases: cell-based or functional assay
collagenase 1 [1] = target: T1, collagenase 1 (UniProt P03956 100-469, limits assumed)
T1 sequence (looked up): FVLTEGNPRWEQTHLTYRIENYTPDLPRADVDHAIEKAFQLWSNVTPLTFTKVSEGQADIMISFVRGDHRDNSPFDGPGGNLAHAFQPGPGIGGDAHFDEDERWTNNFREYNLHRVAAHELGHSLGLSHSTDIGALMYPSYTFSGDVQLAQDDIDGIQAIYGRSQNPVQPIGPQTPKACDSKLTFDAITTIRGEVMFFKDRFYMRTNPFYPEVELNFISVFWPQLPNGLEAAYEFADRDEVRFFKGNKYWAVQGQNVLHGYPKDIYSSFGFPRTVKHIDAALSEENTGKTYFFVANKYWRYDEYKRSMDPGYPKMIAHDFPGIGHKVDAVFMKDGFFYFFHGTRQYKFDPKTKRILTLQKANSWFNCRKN

human Gelatinase-A [2] = target: T2, human Gelatinase-A (human, UniProt P08253 110-660, limits assumed)
T2 sequence (looked up): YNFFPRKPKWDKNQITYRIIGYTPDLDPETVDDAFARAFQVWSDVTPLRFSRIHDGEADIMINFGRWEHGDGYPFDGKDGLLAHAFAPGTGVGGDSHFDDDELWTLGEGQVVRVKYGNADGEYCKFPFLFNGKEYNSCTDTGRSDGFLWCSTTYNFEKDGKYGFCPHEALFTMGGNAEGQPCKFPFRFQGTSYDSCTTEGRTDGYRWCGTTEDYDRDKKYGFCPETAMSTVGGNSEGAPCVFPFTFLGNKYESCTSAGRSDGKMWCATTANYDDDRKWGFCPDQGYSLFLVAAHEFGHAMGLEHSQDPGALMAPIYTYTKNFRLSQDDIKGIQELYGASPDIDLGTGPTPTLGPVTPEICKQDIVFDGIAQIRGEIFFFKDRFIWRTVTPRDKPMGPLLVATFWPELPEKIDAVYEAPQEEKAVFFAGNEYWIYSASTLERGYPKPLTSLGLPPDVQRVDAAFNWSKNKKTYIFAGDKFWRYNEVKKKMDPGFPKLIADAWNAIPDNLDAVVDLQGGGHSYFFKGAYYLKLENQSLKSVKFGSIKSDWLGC

gelatinase B [3] = target: T3, gelatinase B (UniProt P14780 107-707, limits assumed)
collagenase 1 [4] = target: T1, collagenase 1; remark: listed apart in the source
stromelysin 1 [5] = target: T4, stromelysin 1 (UniProt P08254 100-477, limits assumed)
human Collagenase-3 = human Collagenase-3 (human, UniProt P45452 104-471, limits assumed)
human Gelatinase-A [6] = target: T2, human Gelatinase-A; remark: listed apart in the source
gelatinase B [7] = target: T3, gelatinase B; remark: listed apart in the source
collagenase 1 [8] = target: T1, collagenase 1; remark: listed apart in the source
stromelysin 1 [9] = target: T4, stromelysin 1; remark: listed apart in the source
human Gelatinase-A [10] = target: T2, human Gelatinase-A; remark: listed apart in the source
gelatinase B [11] = target: T3, gelatinase B; remark: listed apart in the source
collagenase 1 [12] = target: T1, collagenase 1; remark: listed apart in the source
stromelysin 1 [13] = target: T4, stromelysin 1; remark: listed apart in the source

T4 sequence (P08254 100-477 limits assumed): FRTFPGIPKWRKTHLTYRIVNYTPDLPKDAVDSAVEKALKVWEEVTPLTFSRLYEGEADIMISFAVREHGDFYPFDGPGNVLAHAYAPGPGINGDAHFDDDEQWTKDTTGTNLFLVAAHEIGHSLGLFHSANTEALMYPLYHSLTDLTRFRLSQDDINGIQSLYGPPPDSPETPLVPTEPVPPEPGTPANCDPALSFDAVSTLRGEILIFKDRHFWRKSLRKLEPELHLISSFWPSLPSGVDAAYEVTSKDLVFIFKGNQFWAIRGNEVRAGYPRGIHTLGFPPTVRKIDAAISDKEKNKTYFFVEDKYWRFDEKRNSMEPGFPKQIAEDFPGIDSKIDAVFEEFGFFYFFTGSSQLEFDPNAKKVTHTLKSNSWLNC
T3 sequence (P14780 107-707 limits assumed): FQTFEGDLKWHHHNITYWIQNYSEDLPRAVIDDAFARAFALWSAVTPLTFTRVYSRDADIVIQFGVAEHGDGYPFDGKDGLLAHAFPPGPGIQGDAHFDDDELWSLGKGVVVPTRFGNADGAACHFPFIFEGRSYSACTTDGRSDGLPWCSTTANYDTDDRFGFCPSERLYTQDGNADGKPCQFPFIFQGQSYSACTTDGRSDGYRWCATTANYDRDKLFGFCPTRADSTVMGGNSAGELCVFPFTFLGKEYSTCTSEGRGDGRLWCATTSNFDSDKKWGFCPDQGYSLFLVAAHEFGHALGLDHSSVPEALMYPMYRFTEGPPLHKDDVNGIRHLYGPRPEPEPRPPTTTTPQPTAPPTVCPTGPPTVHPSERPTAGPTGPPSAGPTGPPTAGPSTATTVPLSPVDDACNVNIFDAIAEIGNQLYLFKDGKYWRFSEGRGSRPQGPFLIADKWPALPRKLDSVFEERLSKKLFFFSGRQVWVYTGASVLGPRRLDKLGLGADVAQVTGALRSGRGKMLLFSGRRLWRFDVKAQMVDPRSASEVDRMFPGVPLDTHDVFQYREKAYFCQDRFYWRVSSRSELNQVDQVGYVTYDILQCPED

{Dabcyl′}-GPLGMRGC(fluorescein)-NH2 [Dabcyl-GPLGMRGC(Fluorescein)-NH2]
selectivity towards Col-3 (collagenase 1 [1]): 215 fold | Selectivity v Col-3, + Gel (human Gelatinase-A [2]): 25.8 unitless | Selectivity v Col-3, + Gel (gelatinase B [3]): 6.3 unitless | Selectivity v Col-3, + Gel (collagenase 1 [4]): 78.4 unitless | Selectivity v Col-3, + Gel (stromelysin 1 [5]): 769 unitless

{Dabcyl′}-GPVNLHGC(fluorescein)-NH2 [Dabcyl-GPVNLHGC(Flu)-NH2]
increase in specificity with type II collagen (human Collagenase-3): 2.5 fold | Selectivity v Col-3 (human Gelatinase-A [2]): 2.3 unitless | Selectivity v Col-3, + Gel (human Gelatinase-A [2]): 26.5 unitless | Selectivity v Col-3 (gelatinase B [3]): 0.7 unitless | Selectivity v Col-3, + Gel (gelatinase B [3]): 6 unitless | Selectivity v Col-3 (collagenase 1 [4]): 128 unitless | Selectivity v Col-3, + Gel (collagenase 1 [4]): 92.3 unitless | Selectivity v Col-3 (stromelysin 1 [5]): 71.3 unitless | Selectivity v Col-3, + Gel (stromelysin 1 [5]): 72.5 unitless | Improvement In Selectivity for 44 ug/ml Type II Collagen vs no Type II Collagen (human Gelatinase-A [6]): 80 fold | Selectivity v Col-3, + 1.6 ug/ml TIICol (human Gelatinase-A [6]): 9.3 unitless | Selectivity v Col-3, + 4.9 ug/ml TIICol (human Gelatinase-A [6]): 26.3 unitless | Selectivity v Col-3, + 15 ug/ml TIICol (human Gelatinase-A [6]): 75.9 unitless | Selectivity v Col-3, + 44 ug/ml TIICol (human Gelatinase-A [6]): 465 unitless | Selectivity v Col-3, + .18 ug/ml TIICol (human Gelatinase-A [6]): 7.7 unitless | Selectivity v Col-3, + .55 ug/ml TIICol (human Gelatinase-A [6]): 9.9 unitless | Selectivity v Col-3, no TIICol (human Gelatinase-A [6]): 5.8 unitless | Improvement In Selectivity for 44 ug/ml Type II Collagen vs no Type II Collagen (gelatinase B [7]): 46 fold | Selectivity v Col-3, + 1.6 ug/ml TIICol (gelatinase B [7]): 3 unitless | Selectivity v Col-3, + 4.9 ug/ml TIICol (gelatinase B [7]): 5.7 unitless | Selectivity v Col-3, + 15 ug/ml TIICol (gelatinase B [7]): 15.2 unitless | Selectivity v Col-3, + 44 ug/ml TIICol (gelatinase B [7]): 58.8 unitless | Selectivity v Col-3, + .18 ug/ml TIICol (gelatinase B [7]): 1.8 unitless | Selectivity v Col-3, + .55 ug/ml TIICol (gelatinase B [7]): 2.2 unitless | Selectivity v Col-3, no TIICol (gelatinase B [7]): 1.3 unitless | Improvement In Selectivity for 44 ug/ml Type II Collagen vs no Type II Collagen (collagenase 1 [8]): 2.5 fold | Selectivity v Col-3, + 1.6 ug/ml TIICol (collagenase 1 [8]): 227 unitless | Selectivity v Col-3, + 4.9 ug/ml TIICol (collagenase 1 [8]): 265 unitless | Selectivity v Col-3, + 15 ug/ml TIICol (collagenase 1 [8]): 355 unitless | Selectivity v Col-3, + 44 ug/ml TIICol (collagenase 1 [8]): 424 unitless | Selectivity v Col-3, + .18 ug/ml TIICol (collagenase 1 [8]): 190 unitless | Selectivity v Col-3, + .55 ug/ml TIICol (collagenase 1 [8]): 221 unitless | Selectivity v Col-3, no TIICol (collagenase 1 [8]): 166 unitless | Improvement In Selectivity for 44 ug/ml Type II Collagen vs no Type II Collagen (stromelysin 1 [9]): 2.5 fold | Selectivity v Col-3, + 1.6 ug/ml TIICol (stromelysin 1 [9]): 389 unitless | Selectivity v Col-3, + 4.9 ug/ml TIICol (stromelysin 1 [9]): 335 unitless | Selectivity v Col-3, + 15 ug/ml TIICol (stromelysin 1 [9]): 447 unitless | Selectivity v Col-3, + 44 ug/ml TIICol (stromelysin 1 [9]): 476 unitless | Selectivity v Col-3, + .18 ug/ml TIICol (stromelysin 1 [9]): 263 unitless | Selectivity v Col-3, + .55 ug/ml TIICol (stromelysin 1 [9]): 281 unitless | Selectivity v Col-3, no TIICol (stromelysin 1 [9]): 192 unitless

B1: Dnp-GPVNLHG-NH2 (peptide)
peptide: Dnp-GPVNLHG-NH2
SMILES: CC(C)C[C@H](NC(=O)[C@H](CC(N)=O)NC(=O)[C@@H](NC(=O)[C@@H]1CCCN1C(=O)CNc1ccc([N+](=O)[O-])cc1[N+](=O)[O-])C(C)C)C(=O)N[C@@H](Cc1c[nH]cn1)C(=O)NCC(N)=O
Selectivity v. Coll-3 (human Gelatinase-A [10]): 25 unitless | Selectivity v. Coll-3 (gelatinase B [11]): 11 unitless | Selectivity v. Coll-3 (collagenase 1 [12]): 459 unitless | Selectivity v. Coll-3 (stromelysin 1 [13]): 1260 unitless

{Dabcyl′}-GPHPFRGC(fluorescein)-NH2 [Dabcyl-GPHPFRGC(Flu)-NH2]
Selectivity v Col-3 (human Gelatinase-A [2]): 14.8 unitless | Selectivity v Col-3 (gelatinase B [3]): 2.6 unitless | Selectivity v Col-3, + Gel (gelatinase B [3]): 11.6 unitless | Selectivity v Col-3 (collagenase 1 [4]): 87.8 unitless | Selectivity v Col-3, + Gel (collagenase 1 [4]): 168 unitless | Selectivity v Col-3 (stromelysin 1 [5]): 43.9 unitless | Selectivity v Col-3, + Gel (stromelysin 1 [5]): 53.8 unitless
